Test [1] has as its target T1, Human CD1d on cells (human, UniProt P15813 20-335).
T1 sequence (looked up): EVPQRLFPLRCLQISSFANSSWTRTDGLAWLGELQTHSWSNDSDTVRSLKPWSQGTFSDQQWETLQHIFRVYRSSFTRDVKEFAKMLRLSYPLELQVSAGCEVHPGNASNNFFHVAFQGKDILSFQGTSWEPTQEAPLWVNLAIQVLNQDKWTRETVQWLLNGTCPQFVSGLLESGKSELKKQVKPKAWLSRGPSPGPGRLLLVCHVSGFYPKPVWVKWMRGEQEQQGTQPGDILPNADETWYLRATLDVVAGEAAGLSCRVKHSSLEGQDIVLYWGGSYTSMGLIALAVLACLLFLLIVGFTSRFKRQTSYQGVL
The test is described as follows: cell-based or functional assay.

Test [2] deals with T2, CD1d tetramer loaded with α-GalCer (ProImmune) (UniProt P15813 20-301, limits assumed).
T2 construct: Bought reagent; also called fluorochrome-conjugated CD1d tetramer
T2 sequence (looked up): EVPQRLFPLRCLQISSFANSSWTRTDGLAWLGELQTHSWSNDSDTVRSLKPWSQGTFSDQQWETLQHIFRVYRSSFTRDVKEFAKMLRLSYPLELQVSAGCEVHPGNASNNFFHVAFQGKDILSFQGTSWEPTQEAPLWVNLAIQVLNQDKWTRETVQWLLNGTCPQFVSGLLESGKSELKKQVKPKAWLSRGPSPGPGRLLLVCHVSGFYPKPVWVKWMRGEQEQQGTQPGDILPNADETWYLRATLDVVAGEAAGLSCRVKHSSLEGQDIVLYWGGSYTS
The test is described as follows: flow cytometry, inhibition of CD1d tetramer (10 nM) binding to NKTCR on J.RT3-T3.5 cells. For orientation: Flow cytometry measures light scatter and fluorescence of single cells or particles in a stream.

Test [3] concerns the target T1, Human CD1d on cells. In words: cell-based or functional assay. The source holds these as a separate data set.
Test [4] concerns the target Cynomolgus macaque CD1d on cells (cynomolgus macaque). In words: flow cytometry, biotinylated antibody and streptavidin-PE on cynomolgus PBMC, gated live cells.
In test [5] the target is T3, Human CD1d/β2M (human, UniProt P15813 20-301; P61769 21-119).
T3 construct: also called hCD1d; recombinant human CD1d
In words: SPR, transfection supernatant.

For test [6], the target named is T1, Human CD1d on cells. The test is described as follows: cell-based or functional assay. This is another data set of the same source.
Test [7] has as its target T1, Human CD1d on cells. The test is described as follows: cell-based or functional assay. The source holds these as a separate data set.
The target in test [8] is T1, Human CD1d on cells. In words: cell-based or functional assay. This is another data set of the same source.
Test [9] deals with T1, Human CD1d on cells. In words: cell-based or functional assay. The source holds these as a separate data set.
Test [10] addresses T3, Human CD1d/β2M. The test is described as follows: SPR, Protein A purified IgG. A general note: In SPR one partner is held on a chip, and binding of the other changes the refractive index at the surface.

Positions count from the first letter of the chain named. Names may count otherwise. Like-named read-outs stand apart in the source and are kept apart here.

Broadly, the EC50 is the concentration giving half of the maximal effect. Low values mean higher potency in that assay, high ones lower potency in that assay. In the test with Human CD1d on cells [1], anti-CD1d antibody 42 (BD Biosciences) displayed an NKT IFN-γ EC50 (moDC) of 0.116 µg/mL and an NKT IL-13 EC50 (moDC) of 0.0175 µg/mL. This molecule also came in with an EC50 in test [2] of 1.44 µg/mL. In the test with Human CD1d on cells [3], the IFN-γ EC50 (C24:1 βGluCer, moDC) came to 0.139 µg/mL; the IFN-γ EC50 (THP-1) was 0.429 µg/mL; the IFN-γ EC50 (primary CD14+ cells) was found to be 1.39 µg/mL; the IL-2 release EC50 (U-937 + NKTCR cell line) amounted to 0.111 µg/mL. Further, in the test with Human CD1d on cells [3], the IL-4 EC50 (C24:1 βGluCer, moDC) was 0.133 µg/mL; the IL-4 EC50 (THP-1) turned out to be 0.0761 µg/mL; the IL-4 EC50 (primary CD14+ cells) was found to be 0.186 µg/mL; the IL-5 EC50 (C24:1 βGluCer, moDC) was 0.0819 µg/mL. In the test with Human CD1d on cells [3], the IL-5 EC50 (THP-1) amounted to 0.0647 µg/mL; the IL-5 EC50 (primary CD14+ cells) was 0.108 µg/mL; the IL-13 EC50 (C24:1 βGluCer, moDC) is 0.0523 µg/mL; the IL-13 EC50 (THP-1) worked out at 0.154 µg/mL. In the test with Human CD1d on cells [3], this molecule came in with an IL-13 EC50 (primary CD14+ cells) of 0.844 µg/mL, an NKT IFN-γ EC50 (moDC) of more than 1 µg/mL, an NKT IL-4 EC50 (moDC) of 0.137 µg/mL and an NKT IL-5 EC50 (moDC) of 0.287 µg/mL. In addition, the TNF-α EC50 (C24:1 βGluCer, moDC) with Human CD1d on cells [3] was determined as 0.00569 µg/mL.
Turning to “irrelevant specificity negative control antibody (human IgG1)”, in test [4], the percent CD1d-positive cells, Donor 1 amounted to 4.14% and the percent CD1d-positive cells, Donor 2 amounted to 4.22%.
anti-CD1d antibody 51.1 (eBioscience) came in with an EC50 in [2] of 0.775 µg/mL. For the same molecule, in the test with Human CD1d on cells [3], the IFN-γ EC50 (C24:1 βGluCer, moDC) stood at 0.112 µg/mL; the IFN-γ EC50 (primary CD14+ cells) is 0.168 µg/mL; the IL-2 release EC50 (U-937 + NKTCR cell line) turned out to be 0.0773 µg/mL; the IL-4 EC50 (C24:1 βGluCer, moDC) was 0.113 µg/mL. In the test with Human CD1d on cells [3], this molecule displayed an IL-5 EC50 (C24:1 βGluCer, moDC) of 0.0864 µg/mL; an IL-13 EC50 (C24:1 βGluCer, moDC) of 0.0668 µg/mL; an IL-13 EC50 (primary CD14+ cells) of 0.222 µg/mL; an NKT IFN-γ EC50 (moDC) of more than 1 µg/mL. This molecule displayed a TNF-α EC50 (C24:1 βGluCer, moDC) with Human CD1d on cells [3] of 0.0297 µg/mL.

B1: 401.11.24 (antibody, IgG4, V domains shown)
VH: QVQLVGSGGGLVKPGRSLRLSCAASGFTFDDYAMHWVRQAPGKGLEWVATIIWNSAIIGYADSVKGRFIVSRDNAKNSLYLQMNSLRAEDTALYYCAKDMCSSSGCPDGYFDSWGQGTLVTVSS
VL: DIQMTQSPSSVSASVGDRVTITCRASQHISSWLAWYQQKPGKAPKLLIYAASSLQSGVSSRFSGSGSGTDFTLTISSLQPEDFATYYCQQANRFPLTFGGGTKLEIKR
notes: IgG4 (S228P)
One may read the Kd as the equilibrium constant for the complex coming apart. Read a low Kd as tighter binding. On to B1, for which binding with Human CD1d/β2M [5] was put at a Kd of 0.644 nM. In addition, in the test with Human CD1d on cells [6], the “NKT IFN-γ EC50 (THP-1)” value amounted to 0.00426 µg/mL and the “NKT IFN-γ EC50 (moDC)” value stood at 0.00036 µg/mL.

B2: 401.11.22 (antibody, V domains shown)
VH: B1 VH with Q1E, G6E, K13Q, T91M
VL: DIQMTQSPSSVSASVGDRVTITCRASQHISSWLAWYQQKPGKAPKLLIYAASSLQSGVSSRFSGSGSGTDFTLTISSLQPEDFATYYCQQANRFPLTFGGGTKLEIK
Molecule B2 returned a Kd with Human CD1d/β2M [5] of 0.754 nM.

B3: 401.11.86 (antibody, IgG4, V domains shown)
VH: B1 VH with T91M, S104G
VL: B1 VL with K45N
For the molecule B3, in the test with Human CD1d on cells [7], the “NKT IFN-γ EC50 (THP-1)” value stood at 0.00129 µg/mL, the “NKT IFN-γ EC50 (moDC)” value amounted to 0.000359 µg/mL, the “NKT IL-4 EC50 (THP-1)” value is 0.000509 µg/mL and the “NKT IL-4 EC50 (moDC)” value came to 0.00174 µg/mL.

B4: 401.11.27 (antibody, V domains shown)
VH: B1 VH with I69T, V70I, T91M
VL: B2 VL with K45N, S59P
As for B4, the binding result in the test with Human CD1d/β2M [5] is reported as “no binding”.

B5: 401.11.28 (antibody, IgG4, V domains shown)
VH: B1 VH
VL: B1 VL with K45N, S59P
Consider B5, for which, in the test with Human CD1d on cells [6], the “NKT IFN-γ EC50 (THP-1)” value was 0.00142 µg/mL and the “NKT IFN-γ EC50 (moDC)” value stood at 0.000294 µg/mL.

B6: 401.11.26 (antibody, IgG4, V domains shown)
VH: B1 VH with Q1E, G6E, K13Q, T91M
VL: B1 VL with K45N, S59P
notes: IgG4 (S228P)
Turning to B6, binding with Human CD1d/β2M [5] was characterised by a dissociation constant (Kd) of 0.855 nM. Further, in the test with Human CD1d on cells [6], the “NKT IFN-γ EC50 (THP-1)” value stood at 0.00325 µg/mL and the “NKT IFN-γ EC50 (moDC)” value came out at 0.0013 µg/mL.

B7: 402.8.53 (antibody, IgG4, V domains shown)
VH: QVQLQESGPGLVKPSETLSLTCAVYGGSFSGYYWSWIRQPPGKGLEWIGEINHAGSTNYNPSLKSRVTISVDTSKNQFSLKLSSVTAADTAVYYCARGEIYDFWKSYLDVWGKGTTVTVSS
VL: QTVVTQEPSLTVSPGGTVTLTCASSSGAVSSGNFPNWFQQKPGQAPRALIFSASNKHSWTPARFSGSLLGGKAVLTLSGVQPEDEAEYYCLLYFGDTQLGVFGGGTKVTVLG
With B7, in the test with Human CD1d on cells [8], the “NKT IFN-γ EC50 (moDC)” value turned out to be 0.000658 µg/mL and the “NKT IL-13 EC50 (moDC)” value worked out at 0.00152 µg/mL. In addition, in the test with Human CD1d on cells [9], the “NKT IFN-γ EC50 (moDC)” value is 0.277 µg/mL and the “NKT IL-4 EC50 (moDC)” value turned out to be 0.105 µg/mL.

B8: 402.8.87 (antibody, IgG4, V domains shown)
VH: B7 VH with W104Y, L108M
VL: B7 VL
notes: IgG4 (S228P)
Consider B8, for which the Kd with Human CD1d/β2M [10] worked out at 0.344 nM. Further, in the test with Human CD1d on cells [9], the “NKT IFN-γ EC50 (moDC)” value is 0.0259 µg/mL and the “NKT IL-4 EC50 (moDC)” value was determined as 0.00101 µg/mL.

B9: 402.8.86 (antibody, IgG4, V domains shown)
VH: B7 VH with W104Y, K105N, L108M
VL: B7 VL
notes: IgG4 (S228P)
The molecule B9 showed a Kd with Human CD1d/β2M [10] of 0.357 nM. Further, in the test with Human CD1d on cells [9], the “NKT IFN-γ EC50 (moDC)” value amounted to 0.0143 µg/mL and the “NKT IL-4 EC50 (moDC)” value is 0.000721 µg/mL.

B10: 402.8.60 (antibody, IgG4, V domains shown)
VH: B7 VH with K13R, A54S, W104Y, K105N, L108M
VL: B7 VL
notes: IgG4 (S228P)
Consider B10, for which binding in the test with Human CD1d/β2M [10] was characterised by a dissociation constant (Kd) of 0.198 nM. In addition, in the test with Human CD1d on cells [8], the “NKT IFN-γ EC50 (moDC)” value came to 0.000244 µg/mL and the “NKT IL-13 EC50 (moDC)” value turned out to be 0.000189 µg/mL. Moreover, in the test with Human CD1d on cells [9], the “NKT IFN-γ EC50 (moDC)” value is 0.0247 µg/mL and the “NKT IL-4 EC50 (moDC)” value was 0.0268 µg/mL.

B11: 402.8.84 (antibody, IgG4, V domains shown)
VH: B7 VH with W104Y
VL: B7 VL
notes: IgG4 (S228P)
Regarding B11, the equilibrium dissociation constant (Kd) with Human CD1d/β2M [10] was 0.587 nM. In the test with Human CD1d on cells [8], the “NKT IFN-γ EC50 (moDC)” value turned out to be 0.000516 µg/mL and the “NKT IL-13 EC50 (moDC)” value is 0.000663 µg/mL. For the same molecule, in the test with Human CD1d on cells [9], the “NKT IFN-γ EC50 (moDC)” value is 0.0306 µg/mL and the “NKT IL-4 EC50 (moDC)” value was 0.000593 µg/mL.
